Source: patent publication US20180142032A1 (Sanofi, published 2018)

Columns and labels:
LAMP1::histag [1] = molecular target: T1, LAMP1::histag (human, UniProt P11279 29-382); assay: SPR (BIAcore 2000), mAb captured by anti-Fc, LAMP1 injected 1 to 256 nM
T1 construct: extracellular domain without signal peptide, C-terminal 6 His tag, made in HEK293 cells; also called recombinant human LAMP1; human LAMP1 (29-382)
T1 sequence: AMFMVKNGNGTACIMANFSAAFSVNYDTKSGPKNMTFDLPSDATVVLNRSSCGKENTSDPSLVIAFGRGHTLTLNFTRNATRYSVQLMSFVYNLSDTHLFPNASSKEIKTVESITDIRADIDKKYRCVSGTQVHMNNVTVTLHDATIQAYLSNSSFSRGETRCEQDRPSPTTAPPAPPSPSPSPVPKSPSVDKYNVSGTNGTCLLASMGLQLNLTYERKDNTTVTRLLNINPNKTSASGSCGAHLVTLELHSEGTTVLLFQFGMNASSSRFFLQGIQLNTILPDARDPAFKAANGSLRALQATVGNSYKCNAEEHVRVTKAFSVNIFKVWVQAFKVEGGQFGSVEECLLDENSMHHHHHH
Protocol: The binding kinetics of the murine, chimer or humanized anti-LAMP1 mAbs were determined by surface plasmon resonance assay using a BIAcore 2000 (BIAcore Inc., Uppsala, N.J.). […] A mouse anti-αhuman Fc IgG1 (BIAcore #BR-1008-39) and rabbit anti-αmurine Fc IgG1 (BIAcore #BR-1008-38) (50 μg/mL in […], pH5) were immobilized on the activated chips in all flow cells. The immobilization was carried out at a flow rate of 10 μL/min up to saturation. The chip was then blocked by injection of 70 μL of ethanolamine-HCl, pH 8.5, followed by one wash with 3 M MgCl₂ for anti-αhuman Fc IgG1 and one wash with 10 mM Glycine-HCl pH 1.7 for anti-αmurine Fc IgG1. To measure the binding of anti-LAMP1 mAbs to LAMP1, antibodies were used at 1-5 μg/mL in BIAcore running buffer (HBS-EP). […] Following completion of the injection phase, dissociation was monitored in a BIAcore running buffer at the same flow rate for 600 sec. […] Individual sensorgrams were analyzed using BIAevaluation software.

LAMP1_mseq3_ΔGYQTI = molecular target: T2, LAMP1_mseq3_ΔGYQTI (human; mouse); assay: flow cytometry, transfected 293-F cells
T2 construct: on cells; also called pXL6014

LAMP1_mseq2_ΔGYQTI = molecular target: T3, LAMP1_mseq2_ΔGYQTI (human; mouse); assay: flow cytometry, transfected 293-F cells
T3 construct: on cells; also called pXL6013

LAMP1_mseq5_ΔGYQTI = molecular target: T4, LAMP1_mseq5_ΔGYQTI (human; mouse); assay: flow cytometry, transfected 293-F cells
T4 construct: on cells; also called pXL6017

hLAMP1_ΔGYQTI = molecular target: T5, hLAMP1_ΔGYQTI (human, UniProt P11279 29-412); assay: flow cytometry, transfected 293-F cells
T5 construct: also called pXL5626
T5 sequence: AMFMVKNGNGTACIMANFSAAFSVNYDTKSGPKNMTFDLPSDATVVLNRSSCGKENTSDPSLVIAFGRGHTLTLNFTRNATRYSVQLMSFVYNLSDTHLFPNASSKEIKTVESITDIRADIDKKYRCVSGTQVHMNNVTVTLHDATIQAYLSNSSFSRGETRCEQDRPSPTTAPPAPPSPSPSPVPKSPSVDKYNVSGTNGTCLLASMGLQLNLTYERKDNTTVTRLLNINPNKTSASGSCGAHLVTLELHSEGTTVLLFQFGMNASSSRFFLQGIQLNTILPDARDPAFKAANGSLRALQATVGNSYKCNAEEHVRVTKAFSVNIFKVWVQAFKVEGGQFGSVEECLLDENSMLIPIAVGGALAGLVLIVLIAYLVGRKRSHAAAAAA

[2] = molecular target: T6, recombinant human LAMP2 with a C-terminal 10 His-tag (human, UniProt P13473 29-375); assay: ELISA on coated LAMP2
T6 construct: bought; also called soluble LAMP2 protein (R&D Systems 6228-LM)
Protocol: LAMP2 is the closest member of the LAMP family with 35% sequence identity to LAMP1. […] Anti-LAMP1 antibodies were added to the plates and detected by using rabbit anti-mouse IgG conjugated with horseradish peroxidase (Sigma; #A9044). Antibody binding was visualized by adding TMB-H₂O₂ buffer and read at a wavelength of 450 nm.

[3] = molecular target: T7, LAMP1_L123_mLAMP1_L4::histag (human/mouse hybrid, UniProt P11279 29-375); assay: ELISA
T7 construct: human LAMP1 (29-309) and mouse LAMP1 (299-369), His tag; also called Loop1-3: hLAMP1 Loop4: mLAMP1
T7 chain: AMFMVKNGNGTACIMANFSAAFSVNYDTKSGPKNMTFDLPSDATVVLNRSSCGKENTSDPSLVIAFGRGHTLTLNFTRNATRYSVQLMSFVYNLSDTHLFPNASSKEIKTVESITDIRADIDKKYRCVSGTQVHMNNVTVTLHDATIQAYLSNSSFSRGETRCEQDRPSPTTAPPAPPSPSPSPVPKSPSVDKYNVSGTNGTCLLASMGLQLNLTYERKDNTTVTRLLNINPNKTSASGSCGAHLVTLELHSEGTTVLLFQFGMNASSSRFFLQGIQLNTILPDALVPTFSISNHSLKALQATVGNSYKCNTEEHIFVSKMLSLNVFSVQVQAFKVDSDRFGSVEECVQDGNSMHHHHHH

mLAMP1::histag = molecular target: T8, mLAMP1::histag (mouse, UniProt P11438 25-369); assay: ELISA
T8 construct: also called mouse LAMP1 (25-369); Mouse LAMP1
T8 sequence: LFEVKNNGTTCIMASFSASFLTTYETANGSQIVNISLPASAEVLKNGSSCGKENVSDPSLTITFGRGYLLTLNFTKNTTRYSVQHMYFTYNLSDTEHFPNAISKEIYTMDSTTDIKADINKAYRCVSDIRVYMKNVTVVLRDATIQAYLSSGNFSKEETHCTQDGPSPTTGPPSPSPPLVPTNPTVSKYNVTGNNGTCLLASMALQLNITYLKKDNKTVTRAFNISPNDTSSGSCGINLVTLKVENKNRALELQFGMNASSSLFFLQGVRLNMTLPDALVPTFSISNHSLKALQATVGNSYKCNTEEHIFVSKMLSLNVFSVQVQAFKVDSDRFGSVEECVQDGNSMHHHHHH

LAMP1::histag [4] = molecular target: T1, LAMP1::histag; assay: ELISA

T6 sequence (P13473 other isoform, or with tags, fused parts or gaps): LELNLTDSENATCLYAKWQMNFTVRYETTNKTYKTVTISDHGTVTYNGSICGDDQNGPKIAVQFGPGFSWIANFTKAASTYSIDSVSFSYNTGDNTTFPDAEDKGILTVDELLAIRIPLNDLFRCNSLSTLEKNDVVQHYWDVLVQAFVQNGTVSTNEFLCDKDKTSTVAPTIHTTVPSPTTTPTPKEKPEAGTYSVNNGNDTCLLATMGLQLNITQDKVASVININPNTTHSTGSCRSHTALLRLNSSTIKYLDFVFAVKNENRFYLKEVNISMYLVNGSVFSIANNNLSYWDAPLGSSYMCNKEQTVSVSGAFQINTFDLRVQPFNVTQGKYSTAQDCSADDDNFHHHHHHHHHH

B1: huMAb1_1 (antibody, human IgG1, kappa)
heavy: not shown
light: DIQMTQSPSSLSASVGDRVTITCKASQDIDRYMAWYQDKPGKAPRLLIHDTSTLQSGVPSRFSGSGSGRDYTLTISNLEPEDFATYYCLQYDNLWTFGGGTKVEIKRTVAAPSVFIFPPSDEQLKSGTASVVCLLNNFYPREAKVQWKVDNALQSGNSQESVTEQDSKDSTYSLSSTLTLSKADYEKHKVYACEVTHQGLSSPVTKSFNRGEC
notes: humanized, VH1-huIgG1 and VL1-huCk
LAMP1::histag [1]
  Kd: 8.2 nM

B2: MAb3 (antibody, V domains shown)
VH: QIQLVQSGPELKKPGETVKISCKASGYIFTNYGMNWVKQAPGKGLKWMGWINTYTGESRYADDFKGRFALSLETSASTAYLQINNLENEDMATYFCAREDYYGNSPWFFDVWGAGTTVTVSS
VL: DIQMTQTTSSLSASLGDRVTISCNASQGINKYLNWYQQKPDGTVKLLIYYTSTLHSGVPSRFSGSGSGTDYSLTINNLEPEDIATYYCQQYTKLPFTFGSGTKLEIK
notes: murine monoclonal IgG, kappa, from hybridoma; also called murine MAb3
LAMP1_mseq3_ΔGYQTI
  mean fluorescence: 674
LAMP1_mseq2_ΔGYQTI
  mean fluorescence: 803
LAMP1_mseq5_ΔGYQTI
  mean fluorescence: 721
hLAMP1_ΔGYQTI
  mean fluorescence: 749
LAMP1::histag [1]
  Kd: 4.7 nM
[2]
  binding result: no binding

B3: MAb1 (antibody, mouse IgG2a, kappa)
heavy: QVQLQQSGAELVKPGASVKMSCKASGYIFTNYNIHWVKKSPGQGLEWIGAIYPGNGDAPYSQKFKDKATLTADKSSSTTYMQLSRLTSEDSAVYYCVRANWDVAFAYWGQGTLVSVSAAKTTAPSVYPLAPVCGDTTGSSVTLGCLVKGYFPEPVTLTWNSGSLSSGVHTFPAVLQSDLYTLSSSVTVTSSTWPSQSITCNVAHPASSTKVDKKIEPRGPTIKPCPPCKCPAPNLLGGPSVFIFPPKIKDVLMISLSPIVTCVVVDVSEDDPDVQISWFVNNVEVHTAQTQTHREDYNSTLRVVSALPIQHQDWMSGKEFKCKVNNKDLPAPIERTISKPKGSVRAPQVYVLPPPEEEMTKKQVTLTCMVTDFMPEDIYVEWTNNGKTELNYKNTEPVLDSDGSYFMYSKLRVEKKNWVERNSYSCSVVHEGLHNHHTTKSFSRTPGK
light: DIQMTQSPPSLSASLGGKVTITCKASQDIDRYMAWYQDKPGKGPRLLIHDTSTLQPGIPSRFSGSGSGRDYSFSISNLEPEDIATYYCLQYDNLWTFGGGTKLEIKRADAAPTVSIFPPSSEQLTSGGASVVCFLNNFYPKDINVKWKIDGSERQNGVLNSWTDQDSKDSTYSMSSTLTLTKDEYERHNSYTCEATHKTSTSPIVKSFNRNEC
notes: murine monoclonal IgG, kappa, from hybridoma; also called murine MAb1
LAMP1_mseq3_ΔGYQTI
  mean fluorescence: 888
LAMP1_mseq2_ΔGYQTI
  mean fluorescence: 990
LAMP1_mseq5_ΔGYQTI
  mean fluorescence: 846
hLAMP1_ΔGYQTI
  mean fluorescence: 914
[3]
  EC50: 0.16 nM
mLAMP1::histag
  binding result: no binding
LAMP1::histag [4]
  EC50: 0.18 nM
LAMP1::histag [1]
  Kd: 4.8 nM
[2]
  binding result: no binding

B4: MAb2 (antibody, mouse IgG1, kappa)
heavy: QVQLQQSAAELARPGASVKMSCKASGYTFTSYTMHWVKQRPGQGLEWIGYFNPSSGYPEYNQKFKDKTTLTADKSSNTAFIQLNSLTSEDSAVYYCSRGYYYGSRGYALDFWGQGASVTVSSAKTTPPSVYPLAPGSAAQTNSMVTLGCLVKGYFPEPVTVTWNSGSLSSGVHTFPAVLQSDLYTLSSSVTVPSSTWPSETVTCNVAHPASSTKVDKKIVPRDCGCKPCICTVPEVSSVFIFPPKPKDVLTITLTPKVTCVVVDISKDDPEVQFSWFVDDVEVHTAQTQPREEQFNSTFRSVSELPIMHQDWLNGKEFKCRVNSAAFPAPIEKTISKTKGRPKAPQVYTIPPPKEQMAKDKVSLTCMITDFFPEDITVEWQWNGQPAENYKNTQPIMDTDGSYFVYSKLNVQKSNWEAGNTFTCSVLHEGLHNHHTEKSLSHSPGK
light: NIVLTQSPVSLAVSLGQRATISCRASESVDINGNTFMHWYQQKPGQSPKLVIYAASNIESGVPARFSGSGSSTDFTFTIDPVEADDVATYYCQQNIEDPWTFGGGTKVEIKRADAAPTVSIFPPSSEQLTSGGASVVCFLNNFYPKDINVKWKIDGSERQNGVLNSWTDQDSKDSTYSMSSTLTLTKDEYERHNSYTCEATHKTSTSPIVKSFNRNEC
notes: murine monoclonal IgG, kappa, from hybridoma; also called murine MAb2
LAMP1_mseq3_ΔGYQTI
  mean fluorescence: 694
LAMP1_mseq2_ΔGYQTI
  mean fluorescence: 694
LAMP1_mseq5_ΔGYQTI
  mean fluorescence: 629
hLAMP1_ΔGYQTI
  mean fluorescence: 757
[3]
  EC50: 0.25 nM
mLAMP1::histag
  binding result: no binding
LAMP1::histag [4]
  EC50: 0.25 nM
LAMP1::histag [1]
  Kd: 63.5 nM
[2]
  binding result: no binding
